{
  "source": "patent US20030165463",
  "molecular_target": "Cre recombinase (Bacteriophage P1?) (UniProt P06956)",
  "sequence (P06956 whole entry)": "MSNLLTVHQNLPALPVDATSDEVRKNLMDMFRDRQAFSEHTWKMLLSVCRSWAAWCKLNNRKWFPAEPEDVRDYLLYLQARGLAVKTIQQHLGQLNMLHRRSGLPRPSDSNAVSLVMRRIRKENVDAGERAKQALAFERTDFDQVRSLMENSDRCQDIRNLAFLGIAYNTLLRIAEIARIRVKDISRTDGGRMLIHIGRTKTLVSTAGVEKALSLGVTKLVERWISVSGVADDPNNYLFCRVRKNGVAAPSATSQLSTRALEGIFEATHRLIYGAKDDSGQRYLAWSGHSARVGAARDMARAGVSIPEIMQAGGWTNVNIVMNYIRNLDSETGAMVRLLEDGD",
  "assay": "cell_activity",
  "conditions": "pCA36 + pBHGloxΔE1,3 in 293Cre4 cells; 15 in 293 cells, homologous recombination background only",
  "data": [
    {"substance": "shuttle plasmid pCA36 without loxP", "values": [
      {"measurement": "activity (total plaques in 6 dishes)", "value": 10}
    ]}
  ]
}
